Measurements reported in patent US20150306193.

Target: T1, purified mouse serpinB13 (GenScript) (UniProt Q8CDC0)
T1 sequence: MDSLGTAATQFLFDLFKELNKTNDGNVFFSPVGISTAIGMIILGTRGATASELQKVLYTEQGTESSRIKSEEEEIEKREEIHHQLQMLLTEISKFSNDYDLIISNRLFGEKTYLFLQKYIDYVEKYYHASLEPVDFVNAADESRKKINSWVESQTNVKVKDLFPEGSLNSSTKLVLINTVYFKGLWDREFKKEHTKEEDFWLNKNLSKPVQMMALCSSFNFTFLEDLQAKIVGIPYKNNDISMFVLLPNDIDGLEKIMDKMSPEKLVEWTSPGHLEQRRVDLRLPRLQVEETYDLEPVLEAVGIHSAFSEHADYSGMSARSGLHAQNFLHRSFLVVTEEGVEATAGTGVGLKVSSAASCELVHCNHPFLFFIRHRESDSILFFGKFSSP

Cathepsin L (Calbiochem)
cleavage of (CBZ-Phe-Arg)2-R110 substrate by cathepsin L in the presence of serpinB13 (fold induction of maximum fluorescence over background): cathepsin L-mediated cleavage of the fluorescent substrate (CBZ-Phe-Arg)2-R110 from inhibition by serpinB13 in vitro
